Source: patent US8093037B2, “Engineered microorganisms with enhanced fermentation activity” (Verdezyne, Inc., priority 2009, dated 2012)

B1: Escherichia coli: xylose isomerase of this donor organism, expressed in S. cerevisiae (protein, UniProt P00944 1-440, looked up)
Xylose isomerase: MQAYFDQLDRVRYEGSKSSNPLAFRHYNPDELVLGKRMEEHLRFAACYWHTFCWNGADMFGVGAFNRPWQQPGEALALAKRKADVAFEFFHKLHVPFYCFHDVDVSPEGASLKEYINNFAQMVDVLAGKQEESGVKLLWGTANCFTNPRYGAGAATNPDPEVFSWAATQVVTAMEATHKLGGENYVLWGGREGYETLLNTDLRQEREQLGRFMQMVVEHKHKIGFQGTLLIEPKPQEPTKHQYDYDAATVYGFLKQFGLEKEIKLNIEANHATLAGHSFHHEIATAIALGLFGSVDANRGDAQLGWDTDQFPNSVEENALVMYEILKAGGFTTGGLNFDAKVRRQSTDKYDLFYGHIGAMDTMALALKIAARMIEDGELDKRIAQRYSGWNSELGQQILKGQMSLADLAKYAQEHHLSPVHQSGRQEQLENLVNHYLFDK
B2: Bacillus licheniformis: xylose isomerase of this donor organism, expressed in S. cerevisiae (protein, UniProt P77832 1-448, looked up)
Xylose isomerase: MFFRNIGMIEYEGADSENPYAFKYYNPDEFVGGKTMKEHLRFAVAYWHTFDADGKDPFGDGTMFRAWNRLTHPLDKAKARAEAAFEFFEKLGVPYFCFHDVDIVDEGATLRETFTYLDQMSSFLKEMMETSHVQLLWNTANMFTHPRYVHGAATSCNADVYAYAAAKVKKGLDIAKELGAENYVFWGGREGYETLLNTDMKLELENLSSFYRMAVEYAREIGFDGQFLIEPKPKEPTKHQYDFDAATTIAFLETYGLKDHFKLNLEANHATLAGHTFEHELRVAALHDMLGSIDANQGDLLLGWDTDEFPTDLYSAVLAMYEILKAGGFKTGGINFDAKVRRPSFADEDLFHAHIAGMDTYAVGLKVASRLLEDKALDQVIEERYESYTKGIGLEIKEGRTDLKKLAAYALENDHIENQSGRQERLKATVNRYLLNALREAPAGKETH
B3: Clostridium thermosulfurogenes: xylose isomerase of this donor organism, expressed in S. cerevisiae (protein, UniProt P19148 1-439, looked up)
Xylose isomerase: MNKYFENVSKIKYEGPKSNNPYSFKFYNPEEVIDGKTMEEHLRFSIAYWHTFTADGTDQFGKATMQRPWNHYTDPMDIAKARVEAAFEFFDKINAPYFCFHDRDIAPEGDTLRETNKNLDTIVAMIKDYLKTSKTKVLWGTANLFSNPRFVHGASTSCNADVFAYSAAQVKKALEITKELGGENYVFWGGREGYETLLNTDMEFELDNFARFLHMAVDYAKEIGFEGQFLIEPKPKEPTKHQYDFDVANVLAFLRKYDLDKYFKVNIEANHATLAFHDFQHELRYARINGVLGSIDANTGDMLLGWDTDQFPTDIRMTTLAMYEVIKMGGFDKGGLNFDAKVRRASFEPEDLFLGHIAGMDAFAKGFKVAYKLVKDRVFDKFIEERYASYKDGIGADIVSGKADFRSLEKYALERSQIVNKSGRQELLESILNQYLFAE
B4: Burkholderia xenovorans: xylose isomerase of this donor organism, expressed in S. cerevisiae (protein, UniProt Q13RB8 1-440, looked up)
Xylose isomerase: MSYFEHIPEIRYEGPQSDNPLAYRHYDKSKKVLGKTLEEHLRIAVCYWHTFVWPGVDIFGQGTFRRPWQQAGDAMERARQKADSAFEFFSKLGTPYYTFHDTDVSPEGSSLKEYSENFLRITDYLARKQEDTGIKLLWGTANLFSHPRYAAGAATSPDPEVFAFAATQVRHALDATQRLGGDNYVLWGGREGYDTLLNTDLMRERDQLARFLHMVVDHAHKIGFKGSLLIEPKPQEPTKHQYDYDVATVHGFLLQHGLEKEIRVNIEANHATLAGHSFHHEIATAYALGIFGSVDANRGDPQNGWDTDQFPNSVEELTLAFYEILKHGGFTTGGMNFDSKVRRQSVDPEDLFYGHIGAIDNLALAVERAAVLIENDRLDQFKRQRYAGWDADFGRKILSGDYSLSTLATDALARGLNPQHASGHQELMENIVNQAIYSGR
B5: Bacillus subtilis: xylose isomerase of this donor organism, expressed in S. cerevisiae (protein, UniProt P0CI80 1-445, looked up)
Xylose isomerase: MAQSHSSSINYFGSANKVVYEGKDSTNPLAFKYYNPQEVIGGKTLKEHLRFSIAYWHTFTADGTDVFGAATMQRPWDHYKGMDLAKMRVEAAFEMFEKLDAPFFAFHDRDIAPEGSTLKETNQNLDMIMGMIKDYMRNSGVKLLWNTANMFTNPRFVHGAATSCNADVFAYAAAQVKKGLETAKELGAENYVFWGGREGYETLLNTDLKFELDNLARFMHMAVDYAKEIGYTGQFLIEPKPKEPTTHQYDTDAATTIAFLKQYGLDNHFKLNLEANHATLAGHTFEHELRMARVHGLLGSVDANQGHPLLGWDTDEFPTDLYSTTLAMYEILQNGGLGSGGLNFDAKVRRSSFEPDDLIYAHIAGMDAFARGLKVAHKLIEDRVFEDVIQHRYRSFTEGIGLEIIEGRANFHTLEQYALNHKSIKNESGRQEKLKAILNQYILEV
modifications: expressed in S. cerevisiae
B6: Staphylococcus xylosus: xylose isomerase of this donor organism, expressed in S. cerevisiae (protein, UniProt P27157 1-439, looked up)
Xylose isomerase: MSYFDINKVNYEGPKSNNAFSFKYYNPEEKLGNHSMSELLRFSVAYWHTFTADLSDPFGVGVAERDWDSLDEMEKAKARVEAIFEFMEKTRIDYFCFHDVDISPEGASLKESNENLDIIVELIKEKMDQTGKKLLWNTTNNFTHERFVHGAATSSNAEVFAYAAAKVKKSLEIAKKLGSENFVFWGGREGYESLLNTNMKLELDNLATFFKMAKSYADEIGYTGQFLIEPKPKEPTTHQYDTDVATAHAFLQKYDLDKDFKFNIEANHATLAGHTFQHELRYARDNNMLGSVDANQGHPLLGWDTDESTDVYDTTLAMYEILKNGGLAPGGLNFDAKPRRTSFKQEDLILTHIAGMDTFALGLRVAYKMIEDNFFENIMDEKYKSFNEGIGKKIVEGETSLKELEDYAFNINTINNTSDHLEVIKSQINQYILNINNKD
B7: R. flavefaciens, FD-1 XI: xylose isomerase of Ruminococcus FD1, ZP_06143883.1, SEQ ID NO: 110 (protein, listed as Ruminococcus flavefaciens)
chain: MEFFKNISKIPYEGKDSTNPLAFKYYNPDEVIDGKKMRDIMKFALSWWHTMGGDGTDMFGCGTADKTWGENDPAARAKAKVDAAFEIMQKLSIDYFCFHDRDLSPEYGSLKDTNAQLDIVTDYIKAKQAETGLKCLWGTAKCFDHPRFMHGAGTSPSADVFAFSAAQIKKALESTVKLGGTGYVFWGGREGYETLLNTNMGLELDNMARLMKMAVEYGRSIGFKGDFYIEPKPKEPTKHQYDFDTATVLGFLRKYGLDKDFKMNIEANHATLAQHTFQHELCVARTNGAFGSIDANQGDPLLGWDTDQFPTNIYDTTMCMYEVIKAGGFTNGGLNFDAKARRGSFTPEDIFYSYIAGMDAFALGYKAASKLIADGRIDSFISDRYASWSEGIGLDIISGKADMAALEKYALEKGEVTDSISSGRQELLESIVNNVIFNL
B8: EDA-E. coli: 2-keto-3-deoxygluconate-6-phosphate aldolase (eda) of E. coli (protein, UniProt P0A955 1-213, looked up)
KHG/KDPG aldolase: MKNWKTSAESILTTGPVVPVIVVKKLEHAVPMAKALVAGGVRVLEVTLRTECAVDAIRAIAKEVPEAIVGAGTVLNPQQLAEVTEAGAQFAISPGLTEPLLKAATEGTIPLIPGISTVSELMLGMDYGLKEFKFFPAEANGGVKALQAIAGPFSQVRFCPTGGISPANYRDYLALKSVLCIGGSWLVPADALEAGDYDRITKLAREAVEGAKL

Key:
[1] = Heterologous xylose isomerase expression in yeast (active yes/no); assay type: cell-based, Saccharomyces cerevisiae; settings: xylose isomerase of donor organism expressed in engineered yeast (S. cerevisiae)
[2] = Xylose isomerase activity assay (sorbitol dehydrogenase/NADH coupled, Kuyper et al.), soluble whole cell extract; assay type: biochemical, Saccharomyces cerevisiae
[3] = EDA activity assay with saturating amounts of E. coli expressed EDD extract; assay type: biochemical, Saccharomyces cerevisiae
Protocol: Grow 5 ml LB-Kan preps of BF1055 (BL21/DE3 with pET26b empty vector) and BF1706 (BL21DE3 with pET26b+E. coli EDD).
Grow 50 ml LB-Kan prep of BF1055, 2% (v/v) inoculate.
Grow 50 ml prep of BF1706 using Novagen's Overnight Express (46.45 ml LB-Kan, 1 ml solution 1, 2.5 ml solution 2, 50 μl solution 3, 5 μl of 1M MnCl2, 50 μl of 0.5 M FeCl2), 2% (v/v) inoculate.
Inoculate to OD600 of 0.2.
EDD extractions (adapted from Chemyan et al, Protein Science 16:2368-2377, 2007): • 1) Pellet cells in 50 ml conical tubes, 4° C., 3,000 rpm, 10 mins, discard supernatant. • 2) Resuspend in 2 ml degassed PDGH buffer (20 mM MES pH 6.5, 30 mM NaCl, 5 mM MnCl2, 0.5 mM FeCl2, 10 mM 2-mercaptoethanol, 10 mM cysteine, sparged with nitrogen gas). Move to hungate tube. • 3) Add 0.1% Triton X-100, 10 ng/ml DNase, 10 μg/ml PMSF, 10 μg/ml TAME (Nα-(p-toluene sulfonyl)-L-arginine methyl ester), 100 μg/ml lysozyme. • 4) Sparge hungate tube with nitrogen gas, cap and seal. Incubate 2 hours at 37° C., swirl occasionally. • 5) Clarify by centrifugation in 2-ml tube, 4° C., 10 mins, 14,000 rpm. Keep supernatant. • 6) Treat with 150 mM pyruvate and 10 mM sodium cyanoborohydride (work in hood) to inactivate aldolase activity. Incubate 30 mins at room temperature. • 7) During incubation, pre-equilibrate PD-10 column from GE • a. Remove top cap, pour off storage buffer. • b. Cut off bottom tip, fit in 50 ml conical with adapter. • c. Pour 5 ml of 20 mM MES buffer, pH 6.5 (total of 5 times). Discard flow-through. • 8) Run sample through column, then add MES buffer to a total of 2.5 ml volume added. Discard flow-through. • 9) Run 3.5 ml 20 mM MES pH 6.5 buffer to elute protein. Discard column in appropriate waste receptacle. • 10) Perform Bradford assay (1:10 or 1:20 dilution). […]
Each reaction contains 50 mM Tris-HCl, pH 7, 10 mM MgCl2, 0.15 mM NADH, 15 μg LDH, saturating amounts of EDD determined empirically (usually ˜100 μg), 1-50 μg EDA (depending on level of activity), and 1 mM 6-phosphogluconate. Reactions are started by the addition of 6-phosphogluconate and monitored for 5 mins at 30° C.

Molecule | Active? (yes/no) [1] | also measured
Actinoplanes missouriensis: xylose isomerase of this donor organism, expressed in S. cerevisiae | No | –
Bacteroides thetaiotaomicron: xylose isomerase of this donor organism, expressed in S. cerevisiae | Yes | –
Streptomyces rubiginosus: xylose isomerase of this donor organism, expressed in S. cerevisiae | No | –
Thermus thermophilus: xylose isomerase of this donor organism, expressed in S. cerevisiae | Yes | –
B1 | No | –
B2 | No | –
B3 | No | –
B4 | No | –
B5 | No | –
B6 | No | –
B7 | – | slope of the activity at saturating xylose (FIG. 25) ([2]; 500 mM xylose, 100 μg total soluble crude extract): highest activity of the candidates tested; specific activity relative to the native XI control ([2]; xylose between 40 and 500 nM): greater than 2 fold
B8 | – | EDA activity compared to the other EDAs, repeated experiment (FIG. 24) ([3]; 100 μg EDD and 25 μg EDA cell lysate (5 μg of E. coli EDA)): most active of those EDA's tested; EDA activity compared to the other EDAs ([3]; first experiment): higher activity as compared to the other EDA activities; EDA activity relative to the EDA from P. aeruginosa ([3]; first experiment, E. coli slope outside linear range): approximately 16 fold
